Target: Spike glycoprotein on SARS-COV-2 viral particles (Italian Variant, Genbank MT682732.1, GISAID EPI_ISL_477204) (SARS-COV-2, UniProt P0DTC2 14-1273)
Experiment: cell-based or functional assay

B1: D3 mAb (fully human IgG4 anti-Spike RBD antibody) (antibody, V domains shown)
VH: QVQLVQSGAEVKKPGATVKISCKVSGYTFTDYYMHWVQQAPGKGLEWMGLVDPEDGETIYAEKFQGRVTITADTSTDTAYMELSSLRSEDTAVYYCARGAKATLGLWGQGTLVTVSR
VL: ELTQDPAVSVALGQTVRITCQGDSLRSYYASWYQQKPGQAPVLVIYGKNNRPSGIPDRFSGSSSGNTASLTITGAQAEDEADYYCNSRDSSGNHVVFGGGTKLTVL
  IC50 of inhibition of viral infectivity (VERO E6 cells, 0.5 MOI): 15 µg/mL

— patent publication US20240166727A1 (CEINGE BIOTECNOLOGIE AVANZATE SCARL, published 2024)
